The text below walks through data of US20170081400A1 (CEPHALON, published 2017).

T1: human TL1A extracellular domain with N-terminal HIS and FLAG tag (human) (UniProt O95150)
T1 sequence: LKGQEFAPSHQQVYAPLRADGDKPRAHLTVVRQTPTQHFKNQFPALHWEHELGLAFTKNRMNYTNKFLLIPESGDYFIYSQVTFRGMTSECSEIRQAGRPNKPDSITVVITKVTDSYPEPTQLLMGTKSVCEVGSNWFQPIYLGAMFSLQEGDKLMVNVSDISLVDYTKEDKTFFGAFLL

T2: human TL1A extracellular domain with N-terminal HIS and FLAG tag (human, UniProt O95150 72-251)
T2 sequence: T1 sequence

T3: human TL1A extracellular domain with N-terminal HIS and FLAG tag (human, UniProt O95150 72-251)
T3 construct: whole entry named. ~70 kDa fraction purified by gel filtration
T3 sequence: T1 sequence

B1: 320-184 (antibody, human IgG1, name in Kabat numbering, V domains shown)
VH: QVQLVQSGAEVKKPGASVKVSCKASGYTFTSYDINWVRQAPGQGLEWMGWLNPNSGNTGYAQKFQGRVTMTADRSTSTAYMELSSLRSEDTAVYYCAREVPETAAFEYWGQGTLVTVSS
VL: QSVLTQPPSVSGAPGQRVTISCTSSSSDIGAGLGVHWYQQLPGTAPKLLIEGYYNRPSGVPDRFSGSKSGTSASLTITGLAPEDEGDYYCQSYDGTLSALFGGGTKLTVLG
notes: human IgG1, lambda
B2: 320-188 (antibody, human IgG1, name in Kabat numbering, V domains shown)
VH: B1 VH
VL: B1 VL with A81H
notes: human IgG1, lambda
B3: 320-186 (antibody, human IgG1, name in Kabat numbering, V domains shown)
VH: B1 VH
VL: B1 VL with A81Q
notes: human IgG1, lambda
B4: 320-185 (antibody, human IgG1, name in Kabat numbering, V domains shown)
VH: B1 VH
VL: B1 VL with A81S
notes: human IgG1, lambda
B5: 320-187 (antibody, human IgG1, name in Kabat numbering, V domains shown)
VH: B1 VH
VL: B1 VL with A81D
notes: human IgG1, lambda
B6: 320-583 (antibody, human IgG1, name in Kabat numbering, V domains shown)
VH: B1 VH
VL: B1 VL with G32A, A81L, Y93W
notes: full-length human IgG1, lambda
B7: 320-590 (antibody, human IgG1, name in Kabat numbering, V domains shown)
VH: B1 VH with N57Y
VL: B1 VL with L33Q, A81L
notes: as for B6
B8: 320-585 (antibody, human IgG1, name in Kabat numbering, V domains shown)
VH: B1 VH
VL: B1 VL with L33Q, A81L, Y93W
notes: as for B6
B9: 320-589 (antibody, human IgG1, name in Kabat numbering, V domains shown)
VH: B1 VH with N57Y
VL: B1 VL with L33S, A81L
notes: as for B6
B10: 320-592 (antibody, human IgG1, name in Kabat numbering, V domains shown)
VH: B1 VH with N57Y
VL: B1 VL with G32A, A81L, Y93W
notes: as for B6
B11: 320-584 (antibody, human IgG1, name in Kabat numbering, V domains shown)
VH: B1 VH
VL: B1 VL with L33S, A81L, Y93W
notes: as for B6
B12: 320-591 (antibody, human IgG1, V domains shown)
VH: B1 VH with N57Y
VL: B1 VL with H36L, A81L
notes: as for B6
B13: 320-586 (antibody, human IgG1, name in Kabat numbering, V domains shown)
VH: B1 VH
VL: B1 VL with H36L, A81L, Y93W
notes: as for B6
B14: 320-593 (antibody, human IgG1, name in Kabat numbering, V domains shown)
VH: B1 VH with N57Y
VL: B1 VL with L33S, A81L, Y93W
notes: as for B6
B15: 320-595 (antibody, human IgG1, name in Kabat numbering, V domains shown)
VH: B1 VH with N57Y
VL: B1 VL with H36L, A81L, Y93W
notes: as for B6
B16: 320-588 (antibody, human IgG1, name in Kabat numbering, V domains shown)
VH: B1 VH with N57Y
VL: B1 VL with G32A, A81L
notes: as for B6
B17: 320-594 (antibody, human IgG1, name in Kabat numbering, V domains shown)
VH: B1 VH with N57Y
VL: B1 VL with L33Q, A81L, Y93W
notes: as for B6

Changes are numbered by the printed parent chain.

For the first assay, the target named is T1, human TL1A extracellular domain with N-terminal HIS and FLAG tag (human). The assay can be described thus: cell-based or functional assay.
On to B1, for which the Antibody IC50, TL1A induced caspase potency assay in TF-1 cells is 10 ng/mL and the Fold improvement over 320-179, TL1A induced caspase potency assay in TF-1 cells turned out to be 3 fold.
In the same order, the values of B2 are 10 ng/mL and 4 fold.
In the same order, the values of B3 are 30 ng/mL and 1 fold.
For B4, in that order: 20 ng/mL and 2 fold.
For B5, the Antibody IC50, TL1A induced caspase potency assay in TF-1 cells turned out to be 20 ng/mL and the Fold improvement over 320-179, TL1A induced caspase potency assay in TF-1 cells stood at 2 fold.

In another assay the target is T2, human TL1A extracellular domain with …. The assay can be described thus: cell-based or functional assay.
B6: the “Antibody IC50, TL1A induced caspase potency assay in TF-1 cells” value (“Antibody IC50” below) is 3 ng/mL and the “Fold improvement over 320-179, TL1A induced caspase potency assay in TF-1 cells” value (from here on “Fold improvement”) worked out at 27 fold.
Consider B7, for which the “Antibody IC50” value was 6 ng/mL and the “Fold improvement” value came to 3 fold.
In the same order, the values of B8 are 3 ng/mL and 13 fold.
On to B9, for which the “Antibody IC50” value is 20 ng/mL and the “Fold improvement” value came out at 1 fold.
For B10, in that order: 3 ng/mL and 7 fold.
Take B11: the “Antibody IC50” value worked out at 8 ng/mL and the “Fold improvement” value is 10 fold.
For B12, in that order: 2 ng/mL and 10 fold.
Regarding B13, the “Antibody IC50” value worked out at 2 ng/mL and the “Fold improvement” value was found to be 25 fold.
As for B14, the “Antibody IC50” value is 4 ng/mL and the “Fold improvement” value was 15 fold.
For B15, in that order: 3 ng/mL and 20 fold.
As to B16, the “Antibody IC50” value amounted to 4 ng/mL and the “Fold improvement” value was 5 fold.
For the molecule B17, the “Antibody IC50” value is 5 ng/mL and the “Fold improvement” value was 12 fold.

The next assay has the same target. The assay can be described thus: SPR Run 8, antibody on Protein A, TL1A 5 ug/mL, timepoint 44. From the text: (§1) 1.5. Antibody expression and antigen binding as determined by SPR. Using a CM5 sensor chip (GE Healthcare) Protein A (Pierce) was coupled to the chip surface using an amine coupling kit (GE Healthcare). Protein A was coupled on flow cell 1 and 2 (or alternatively 3 and 4) using a BIACORE® T200. […] The amount of supernatant or purified protein (as well as the concentration) injected during the capture stage varied between runs and is specified in the header of the Tables 3-11. At the end of injection of the supernatant or purified antibody the change in response units was measured. This value was reported as Capture Level in Tables 3-11. […] The response units were measured prior to the end of the dissociation phase. […] The sensorgrams were double referenced (flow cell 2 is subtracted from flow cell 1 and a buffer blank). As there were a large number of antibody variants to screen, these were screened across different runs (Tables 3-11). […] A summary of the conditions used in each run is below:
(§2) 2.1. […] In some experiment the antibodies were purified using Protein A chromatography (See 1.4) and purified antibodies were used in BIACORE® (GE Healthcare) experiments.
B6: the “TL1A Binding Level (Early)” value worked out at 108 RU.
For B7, the “TL1A Binding Level (Early)” value came to 130 RU.
Regarding B8, the “TL1A Binding Level (Early)” value is 116 RU.
The same measure, in the same setting: the same measure for B9: 120 RU.
B10: the “TL1A Binding Level (Early)” value amounted to 128 RU.
Same read-out and setting: the value for B11 was 103 RU.
B12: the “TL1A Binding Level (Early)” value was found to be 132 RU.
In the case of B13, the “TL1A Binding Level (Early)” value amounted to 108 RU.
Still for that read-out and setting: the same measure for B14: 126 RU; for B15: 129 RU.
Take B16: the “TL1A Binding Level (Early)” value is 128 RU.
Regarding B17, the “TL1A Binding Level (Early)” value was found to be 134 RU.

For a further assay the target is unchanged. The assay can be described thus: SPR Run 8, antibody on Protein A, TL1A 5 ug/mL, timepoint 590.
Source text: as §1, §2
Consider B6, for which the “TL1A Binding Level (Late)” value amounted to 103 RU.
Same read-out and setting: the same measure for B7: 121 RU; for B8: 109 RU.
As to B9, the “TL1A Binding Level (Late)” value came out at 109 RU.
On to B10, for which the “TL1A Binding Level (Late)” value stood at 129 RU.
For B11, the “TL1A Binding Level (Late)” value came out at 98 RU.
With B12, the “TL1A Binding Level (Late)” value came to 124 RU.
The same measure, in the same setting: the value for B13 was 103 RU.
Regarding B14, the “TL1A Binding Level (Late)” value amounted to 124 RU.
Regarding B15, the “TL1A Binding Level (Late)” value was 128 RU.
On to B16, for which the “TL1A Binding Level (Late)” value turned out to be 123 RU.
As for B17, the “TL1A Binding Level (Late)” value was 132 RU.

The target in the next assay is T3, human TL1A extracellular domain with …. Put plainly: SPR run 1; purified antibody on Protein A; TL1A 10 ug/mL; timepoint 59.
Source text: as §1, §2
B1: the “TL1A Binding Level (Early)” value came out at 141 RU.
Still for that read-out and setting: the value for B2 was 136 RU.
Consider B3, for which the “TL1A Binding Level (Early)” value worked out at 136 RU.
Still for that read-out and setting: the value for B4 was 137 RU; that for B5 was 134 RU.

The target is the same in a further assay. The assay can be described thus: SPR run 1; purified antibody on Protein A; TL1A 10 ug/mL; timepoint 590.
Source text: as §1, §2
Take B1: the “TL1A Binding Level (Late)” value is 118 RU.
On the same count and under the same terms, the value for B2 was 113 RU.
Same read-out and setting: the value for B3 was 113 RU.
Regarding B4, the “TL1A Binding Level (Late)” value was found to be 114 RU.
Still for that read-out and setting: the value for B5 was 112 RU.
